Consider 6 molecules from patent publication US7521540B2, “CYR61 compositions and methods” (Munin Corporation, priority 1996, dated 2009).

The test system of experiment [1] is 1064SK primary human foreskin fibroblasts. As to the kind of experiment: Fibroblast adhesion assay (methylene blue, A620). In kind it is cell-based. Particulars: for inhibition by anti-α6 antibody of binding mediated by the coated protein: anti-α6 20 μg/ml; for support of 1064SK fibroblast adhesion: protein coated on wells. The protocol:
The ability of Cyr61 to mediate cell adhesion in normal fibroblasts was investigated. Microtiter wells were coated with purified recombinant Cyr61 protein, and 1064SK primary human foreskin fibroblasts were allowed to adhere under serum-free conditions. […] 50 μl cell suspensions were plated on microtiter wells coated with varying concentrations (0.5-5.0 μg/ml) of Cyr61 protein. After incubation at 37° C. for 30 minutes, adherent cells were fixed and stained with methylene blue.
In another experiment, microtiter wells were coated with either BSA, Cyr61 (2 μg/ml), or vitronectin (VN; 0.5 μg/ml) and blocked with affinity-purified anti-Cyr61 antibodies for one hour at 37° C. before 1064SK cells were plated.
The effects of divalent cations in cell adhesion to Cyr61 was also investigated. […] Data are means from triplicate determinations. […] Inhibition by Ca^2+ is characteristic of adhesion through some members of the β1 family of integrins, including receptors that bind type I collagen, laminin, and vitronectin (integrins α2β1, α6β1, and αVβ1) in fibroblasts, as well as the lymphocyte-specific integrin αLβ2.
The effects of RGD peptides on Cyr61-mediated fibroblast binding was tested by plating cells in wells coated with Cyr61 (2 μg/ml). Type I collagen (2 μg/ml) or vitronectin (0.5 μg/ml), 2 mM GRGDSP or GRGESP peptide was then added.
Cells were also pre-incubated with 40 μg/ml monoclonal antibodies against the integrin α5 or the integrin αV subunits at room temperature for 30 minutes, then plated on wells coated with Cyr61 (2 μg/ml), vitronectin (0.5 μg/ml) or fibronectin (FN, 1 μg/ml). […] The data are means, representative of three experiments.
The 1064 SK cells were also analyzed using the monoclonal antibody JBIA, which binds the β1 integrin subunit. Cells were pre-incubated with the antibody (50 μg/ml) before plating on microtiter wells coated with Cyr61 (2 μg/ml), Type I collagen (2 μg/ml), or vitronectin (0.5 μg/ml). […] Data are means, representative of three experiments.
To identify the specific β1 integrin that mediates fibroblast adhesion to Cyr61, the inhibitory effects of function-blocking monoclonal antibodies were tested against various integrin α subunits. […] The data are means, representative of at least three experiments.

The nature of experiment [2]: Heparin binding assay (salt elution from heparin-Sepharose/agarose).
In the next experiment the test system is NIH 3T3 fibroblasts. Put plainly: Thymidine incorporation (mitogen potentiation), NIH 3T3. It is filed as cell-based, mouse. Conditions: bFGF 15 ng/ml or PDGF-BB 30 ng/ml. The protocol:
More specifically, NIH 3T3 fibroblast cells were plated on 24-well plates at 3×10^4 cells/well and grown in DMEM with 10% fetal bovine serum (Intergen Co., Purchase, N.Y.) for 3-4 days and incubated with medium containing 0.2% FBS for the following 48 hours. The following compounds, at the parenthetically noted final concentrations, were then added to the plated cells in fresh DMEM containing 0.2% fbs and [^3H]-thymidine (1 μCi/ml final concentration; ICN Biomedicals, Inc., Costa Mesa, Calif.): bFGF (15 ng/ml), PDGF-BB (30 ng/ml), and murine Cyr61 (0.5-5 μg/ml). These compounds were added to individual plates according to the following pattern: 1) no supplementation; 2) murine Cyr61; 3) bFGF; 4) murine Cyr61 and bFGF; 5) PDGF-BB; and 6) murine Cyr61 and PDGF. After 18-20 hours of incubation, cells were washed with PBS and fixed with 10% trichloroacetic acid. DNA was dissolved in 0.1 N NaOH and thymidine incorporation was determined. […] Without any supplements, 3T3 cells incorporated approximately 1.8×10^4 cpm of [^3H]-thymidine, in the presence or absence of Cyr61. Cells exposed to bFGF alone incorporated about 1.2×10^5 cpm; cells contacting bFGF and murine Cyr61 incorporated 2×10^5 cpm. Cells receiving PDGF-BB incorporated about 1.2×10^5 cpm; and cells exposed to PDGF-BB and murine Cyr61 incorporated approximately 2.4×10^5 cpm.
DNA synthesis for HUVE cells and NIH 3T3 fibroblasts was measured by thymidine incorporation as described previously (Kireeva et al., [1996]) with minor modifications. HUVE cells were grown in 24-well plates to a subconfluent state, serum-starved for 24 hours and treated with F12K medium containing 10% fetal bovine serum (FBS), 1 μCi/ml [^3H]-thymidine and 10 ng/ml basic Fibroblast Growth Factor (bFGF) (Gibco-BRL, Inc.) with various concentrations of Cyr61 and Fisp12 as indicated. NIH 3T3 fibroblasts were grown to subconlfluence, serum-starved for 48 hours, and treated with Minimal Essential Medium (MEM) containing 0.5% FBS, 1 μCi/ml [^3H]-thymidine, bFGF and various concentrations of Cyr61 or Fisp12. Thymidine incorporation into the trichloroacetic acid-insoluble fraction was determined after 24 hour incubation. Logarithmically grown mink lung epithelial cells (Mv1lu, CCL64) were treated with various concentrations of TGF-β1 (Gibco-BRL) and 2 μg/ml of Cyr61 or Fisp12 for 18 hours; [^3H]-thymidine was then added to 1 μCi/ml for 2 hours. Thymidine incorporation was determnined as described above.
On the technique in general: Incorporation of labelled thymidine or its analogues reports DNA synthesis.

Experiment [3] relates to 1064SK human skin fibroblasts. Put plainly: Human skin fibroblast migration. In kind it is cell-based. Conditions: 1064SK cells.
The test system of experiment [4] is primary human foreskin fibroblasts. As to the kind of experiment: Cyr61-regulated gene expression (multi-gene blot, Northern). It is filed as cell-based. On the procedure:
Purified, soluble, recombinant Cyr61 protein was added to cultures of primary human foreskin fibroblasts for 24 hours. From these cells, mRNA was isolated for preparation of probes to hybridize to a multi-gene blot (Clontech Atlas Human Array 1.2 cat no. 7850-1) containing about 650 genes. The levels of expression of these genes in Cyr61-treated cells were compared to that of control cells. […] These findings have been confirmed by Northern blot analysis showing increases or decreases of the mRNAs in question in Cyr61-treated cells. A time course of expression changes has been established. In particular, by 6 hours after its addition, Cyr61 has induced expression of VEGF-A mRNA and the induction is still evident at 12 and 24 hours post-addition. Also at 12 and 24 hours post-addition, Cyr61 has induced expression of VEGF-A polypeptide. With respect to VEGF-C, induction of mRNA is clearly evident 12 hours after addition of Cyr61 and the induction persists at least through 24 hours post-addition. Cyr61 is expected to induce the expression of VEGF-C polypeptide with similar kinetics.

B1: H2: Cyr61 variant, heparin-binding motif at residues 305-310 replaced with alanine (protein)
chain: TCPAACHCPLEAPKCAPGVGLVRDGCGCCKVCAKQLNEDCSKTQPCDHTKGLECNFGASSTALKGICRAQSEGRPCEYNSRIYQNGESFQPNCKHQCTCIDGAVGCIPLCPQELSLPNLGCPNPRLVKVSGQCCEEWVCDEDSIKDSLDDQDDLLGLDASEVELTRNNELIAIGKGSSLKRLPVFGTEPRVLFNPLHAHGQKCIVQTTSWSQCSKSCGTGISTRVTNDNPECRLVKETRICEVRPCGQPVYSSLKKGKKCSKTKKSPEPVRFTYAGCSSVVAAYAPYCGSCVDGRCCTPLQTRTVKMRFRCEDGEMFSKNVMMIQSCKCNYNCPHPNEASFRLYSLFNDIHKFRD
B1: in experiment [1], the “inhibition by anti-α6 antibody of binding mediated by the coated protein” value is recorded as 70% and the “support of 1064SK fibroblast adhesion” value is recorded as “able to support fibroblast adhesion”. In experiment [2], the “heparin binding” value is “somewhat decreased heparin-binding affinities”.

B2: H1: Cyr61 variant, lysine/arginine of heparin-binding motif at residues 280-290 replaced with alanine (protein)
chain: TCPAACHCPLEAPKCAPGVGLVRDGCGCCKVCAKQLNEDCSKTQPCDHTKGLECNFGASSTALKGICRAQSEGRPCEYNSRIYQNGESFQPNCKHQCTCIDGAVGCIPLCPQELSLPNLGCPNPRLVKVSGQCCEEWVCDEDSIKDSLDDQDDLLGLDASEVELTRNNELIAIGKGSSLKRLPVFGTEPRVLFNPLHAHGQKCIVQTTSWSQCSKSCGTGISTRVTNDNPECRLVKETRICEVRPCGQPVYSSLKKAGAACSATAKPEPVRFTYAGCSSVKKYRPKYCGSCVDGRCCTPLQTRTVKMRFRCEDGEMFSKNVMMIQSCKCNYNCPHPNEASFRLYSLFNDIHKFRD
Turning to B2, in experiment [1], the “inhibition by anti-α6 antibody of binding mediated by the coated protein” value came to 69% and the “support of 1064SK fibroblast adhesion” value is listed as “able to support fibroblast adhesion”. Moreover, the “heparin binding” value in experiment [2] is on record as “somewhat decreased heparin-binding affinities”.

B3: PDGF-BB: Platelet-Derived Growth Factor, BB isoform (protein, UniProt P01127 82-190, looked up)
Platelet-derived growth …: SLGSLTIAEPAMIAECKTRTEVFEISRRLIDRTNANFLVWPPCVEVQRCSGCCNNRNVQCRPTQVQLRPVQVRKIEIVRKKPIFKKATVTLEDHLACKCETVAAARPVT
modifications: BB homodimer
notes: Platelet-Derived Growth Factor, BB isoform
Consider B3, for which, in the experiment with NIH 3T3 fibroblasts, the “[3H]-thymidine incorporation, growth factor alone” value was “about 1.2×10^5 cpm”.

B4: Cyr61 NT: Human Cyr61 fragment with domains I, II and III, lacking heparan binding domain IV (protein)
chain: TCPAACHCPLEAPKCAPGVGLVRDGCGCCKVCAKQLNEDCSKTQPCDHTKGLECNFGASSTALKGICRAQSEGRPCEYNSRIYQNGESFQPNCQHQCTCIDGAVGCIPLCPQELSLPNLGCPNPRLVKVTGQCCEEWVCDEDSIKDPMEDQDGLLGKELGFDASEVELTRNNELIAVGKGRSLKRLPVFGMEPRILYNPLQGQKCIVQTTSWSQCSKTCGTGISTRVTNDNPECRLVKETRICEVRPCGQPVYSSLK
With B4, in experiment [1], the “support of 1064SK fibroblast adhesion” value is given as “did not support fibroblast adhesion”. Further, the results for the “migration of human fibroblasts” value in experiment [3] and in experiment [3] (listed as human Cyr61 NT) were “did support fibroblast migration” and “induced 1064SK cell migration”, respectively. Also, the “induction of VEGF, MMP1, MMP3 etc.” value in experiment [4] is on record as “do not induce the expression of the above-referenced genes”.

B5: heparatinase: Enzyme used to pretreat cells (heparinase I, 2 U/ml) (protein, UniProt Q05819 22-384, looked up)
Heparin lyase I: QQKKSGNIPYRVNVQADSAKQKAIIDNKWVAVGINKPYALQYDDKLRFNGKPSYRFELKAEDNSLEGYAAGETKGRTELSYSYATTNDFKKFPPSVYQNAQKLKTVYHYGKGICEQGSSRSYTFSVYIPSSFPDNATTIFAQWHGAPSRTLVATPEGEIKTLSIEEFLALYDRMIFKKNIAHDKVEKKDKDGKITYVAGKPNGWKVEQGGYPTLAFGFSKGYFYIKANSDRQWLTDKADRNNANPENSEVMKPYSSEYKTSTIAYKMPFAQFPKDCWITFDVAIDWTKYGKEANTILKPGKLDVMMTYTKNKKPQKAHIVNQQEILIGRNDDDGYYFKFGIYRVGNSTVPVTYNLSGYSETAR
As for B5, the “1064SK adhesion to Cyr61-coated wells with agent” value in experiment [1] (Cyr61 2 μg/ml, agent at the level stated in the block, Mg2+ 5.0 mM after EDTA) came out at 0.13 A620. For the same molecule, the “1064SK adhesion to fibronectin-coated wells with agent” value in experiment [1] (fibronectin 1 μg/ml) is 0.66 A620. In experiment [1] (vitronectin 0.5 μg/ml), the “1064SK adhesion to vitronectin-coated wells with agent” value is given as 0.63 A620.

B6: decorin: Decorin from Sigma (protein, UniProt P21793 31-360, looked up)
Decorin: DEASGIGPEEHFPEVPEIEPMGPVCPFRCQCHLRVVQCSDLGLEKVPKDLPPDTALLDLQNNKITEIKDGDFKNLKNLHTLILINNKISKISPGAFAPLVKLERLYLSKNQLKELPEKMPKTLQELRVHENEITKVRKSVFNGLNQMIVVELGTNPLKSSGIENGAFQGMKKLSYIRIADTNITTIPQGLPPSLTELHLDGNKITKVDAASLKGLNNLAKLGLSFNSISAVDNGSLANTPHLRELHLNNNKLVKVPGGLADHKYIQVVYLHNNNISAIGSNDFCPPGYNTKKASYSGVSLFSNPVQYWEIQPSTFRCVYVRAAVQLGNYK
Take B6: in experiment [1] (in cell suspension), the “concentration that inhibited cell adhesion to Cyr61” value came to 10 µg/mL.
